Reference: the supplement of paper PMC9170038

Test system: MS2 coat protein
Assay: apparent KD of MS2 coat protein; designed switch direction (-1 OFF switch, 1 ON switch): -1; higher = weaker reporter binding
How it was run: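 On Illumina chips, designed RNA switches with common flanks were made by stalled E. coli RNA polymerase. Titrations with SNAP-549-labelled MS2 coat protein, doubling from 0.7 or 1.5 nM to 3 µM, were done with no input, with 200 uM small-molecule ligand, or with an oligonucleotide input. Apparent KD is the median per design over clusters, from curve fits of normalised cluster fluorescence.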

[1] = input ligand: microRNA oligo, concentration not stated
[2] = Eterna round: R95, input ligand: microRNA oligo, concentration not stated
[3] = Eterna round: R95, input ligand: FMN 200 uM
[4] = Eterna round: R95, input ligand: none

Sequence | apparent KD of MS2 coat protein (input ligand: FMN 200 uM) [nM] | apparent KD of MS2 coat protein (input ligand: none) [nM] | apparent KD of MS2 coat protein [1] [nM] | apparent KD of MS2 coat protein [2] [nM] | apparent KD of MS2 coat protein [3] [nM] | apparent KD of MS2 coat protein [4] [nM]
UUAGGAUCAGGAUAUGAUGUUUUUUACAUGAGGAUCACCCAUGUUGAUCCUGAUUCAACAUCAGAAGGGAUAAUUU [JR_Ex5_Sub081] (Eterna round: R97, puzzle: Exclusion 5) | 85.2 | 21.4 | – | – | – | –
GCUCGUGGGCAAGGAUAUCCUACGCUGUUCUGGUUCGUGUCUGUCACAUGAGGAUCACCCAUGUGGGAGAAGGUGCAUUUGGGU [Design 56] (Eterna round: R96, puzzle: Exclusion NG 2) | 18.2 | 20.6 | 15.9 | – | – | –
GAUCAGCUUGUGAGGAUAUCCGGGCUUAAAGGCUAGGAGAAGGUACAUGAGGAUCACCCAUGUAGAGUCCUGGG [Zageesen] (puzzle: Brourd's mod of Exclusion 4) | – | – | – | 50.4 | – | –
CCGUCGGUAGGAUAUGCUAUGCAUGUCGGCGCUAUUUGAGGACAUGAGGAUCACCCAUGUAGAAGGGCCGAGGU [Eternabot (L1) Solution 55] (Eterna round: R97, puzzle: Exclusion 2) | 22.7 | 15.7 | – | – | – | –
GGCCGGCGAGGAUAUACCGAAUGAAGGUGAUAUGAAUGAUUACAUGAGGAUCACCCAUGUAGAAGGCGCCGGCC [Default title] (Eterna round: R97, puzzle: Exclusion 2) | 327 | 146 | – | – | – | –
CUGGUCCGAGGAUAUAUUAUGUGAUACAUGAGGAUCACCCAUGUUAUAUGAUGGAAAUAAAUAGAAGGCGGACUAG [Mat - Exclusion 5 - JL mod - D67] (puzzle: Exclusion 5) | – | – | – | 70.5 | 79 | 69
GUUCAGUCAGGAUAUCAAUCCGCCUGUGAUACGCAGGCGGCUGAGAAGGGACAUGAGGAUCACCCAUGUAAAGA [jl-ex4-4.21 ViennaUCT mod] (Eterna round: R97, puzzle: Exclusion 4) | 51.1 | 37.1 | – | – | – | –
AAUAACAUGUUGAUCAAAGACAUGAGGAUCACCCAUGUCAGCUUUUUGUUCGUAGAUUAACACUAAUAAUAAUAAUA [Stov1new/2-C] (Eterna round: R97, puzzle: Sensor, turn-off variant 1) | 16.5 | 16.5 | – | – | – | –
UUUUAACAUGAGGAUCACCCAUGUGAGGAUAUCGAAAUUUAUAUUAAUAUUAAUAUUUCGAGAAGGCACAUUUU [JMF 25] (puzzle: Exclusion 1) | – | – | – | 125 | – | –
CUUUCGUGAGGAUAUGUGGCUUCGAUCGUGCGAUCGAGGCUACAGAAGGCACAUGAGGAUCACCCAUGUUCCUC [salish99_ex4_r4_221] (Eterna round: R97, puzzle: Exclusion 4) | 427 | 45.6 | – | – | – | –
AAAACAAAGCUAGGAUAUUGUCCGAUGUAGCGAUAAGAAGGAGCAGAGUACGUCUGGUCCACAUGAGGAUCACCCAUGUACAAA [Inmaon] (Eterna round: R96, puzzle: Exclusion NG 1) | 183 | 67.5 | 79.6 | – | – | –
UAUAUAUAGUAAGGAUAUGUAACUAUUUUAUAAACAGAAGGUACUGACAUGAGGAUCACCCAUGUUUUAGUGUGGGCAUGUAGA [JMF's solution 29] (Eterna round: R96, puzzle: Exclusion NG 1) | – | – | 72.6 | – | – | –
AUGCCCUGAGGAUAUCUCAUCCCGCACAUGAGGAUCACCCAUGUUCUUCUCCGGGCUCCGAGAGAAGGCAGGCCUA [Armus6] (Eterna round: R97, puzzle: Exclusion 5) | 68.2 | 102 | – | – | – | –
AGAGUACAUGAGGAUCACCCAUGUCAGGAUAUGCAGAAGAAGAAGAAGAGAAGAGAGAGCAGAAGGGACAAGAG [Ex 1 M2] (puzzle: Exclusion 1) | – | – | – | 26.2 | 41.1 | 29.4
CGUGUGUAAGGAUAUUUUGCAAGGCGGUGGACCCGCCUAUUAGAGAAGGUACAUGAGGAUCACCCAUGUGAGCC [Eternabot (L2) Solution 74] (Eterna round: R97, puzzle: Exclusion 4) | 58.2 | 42.3 | – | – | – | –
UGUUGUCGCGCAGGAUAUGCAUGAGGAUCACCCAUGCAAUUAGAGUUAACAUGAGGAUCACCCAUGUAGAAGGGCGGGACAACU [pwkr exNG2 2xF5 1xFMN.5] (Eterna round: R96, puzzle: Exclusion NG 2) | 65.1 | 54.2 | 27.6 | – | – | –
GGUCUGCGAGGAUAUACAUGAGGAUCACCCAUGUGCGAGAUACUAGUGAGGUCGGUUGGUAGAAGGCGCGGACG [JL-ex3-2.07 salish99 mod] (puzzle: Exclusion 3) | – | – | – | 37.1 | 58.8 | 55.6

Sequence | apparent KD of MS2 coat protein (input ligand: FMN 200 uM) [nM] | apparent KD of MS2 coat protein (input ligand: none) [nM] | apparent KD of MS2 coat protein [1] [nM] | apparent KD of MS2 coat protein [2] [nM] | apparent KD of MS2 coat protein [3] [nM] | apparent KD of MS2 coat protein [4] [nM]
UGACUACAUGAGGAUCACCCAUGUCAGGAUAUGCCGUUAAAUUAACAUCAACAUACGGGUAGAAGGGACAGCGU [1st #5] (Eterna round: R97, puzzle: Exclusion 1) | 27.2 | 29.4 | – | – | – | –
AGAGUGCUGCGAGGAUAUACAUGAGGAUCACCCAUGUAAAAGUGUGAGGCUUUGCCUCACACUAUGUAGAAGGCGCAGUACUCA [Mat - Exclusion NG 2 - Mod of JL - D10] (Eterna round: R96, puzzle: Exclusion NG 2) | 17.6 | 13.4 | 9.4 | – | – | –
GUGAACUCGCUACUUACCAACAUGAGGAUCACCCAUGUGGGAGAAAGUGAAUAGCUAGUUGUUACGUCUUAAUCCAG [Eternabot (L1) Solution 47] (Eterna round: R97, puzzle: Sensor, turn-off variant 1) | 12.7 | 13 | – | – | – | –
UAUAUAUAGUAAGGAUAUGUAAUUAUUUCAUAAACAGAAGGUACUGACAUGAGGAUCACCCAUGUUUUAGUGUGGGCAUGUAGA [JMF's solution 43] (Eterna round: R96, puzzle: Exclusion NG 1) | – | – | 60.2 | – | – | –
ACGCGACAUGAGGAUCACCCAUGUGAGGAUAUGGCCUGUUUGUCGUGUGCUGGCUCUGUCAGAAGGCGCGUGGG [salish99_ex1_r4_041] (Eterna round: R97, puzzle: Exclusion 1) | 612 | 683 | – | – | – | –
GACUGCAGAGGAUAUACAUGAGGAUCACCCAUGUGAGAUGCCUGACAGGUGUUGCUGAGUAGAAGGCUGCACUG [Onorveer] (puzzle: Exclusion 3) | – | – | – | 13.2 | – | –
AAGGGUGCUUUCAGAACGACAUGAGGAUCACCCAUGUAGACUGAGGAUAUCUACUUCUAAGGACGGGAGAAGGCAGUGUAAUGC [Ex NG3 #68] (Eterna round: R96, puzzle: Exclusion NG 3) | 23.1 | 21.6 | 19.5 | – | – | –
AAUAACAAGCAGAUCCUCCACAUGAGGAUCACCCAUGUGCUCGUCUUGUAAAGUACUAUCACGAAAGUGAUAGUACA (Eterna round: R97, puzzle: Sensor, turn-off variant 1) | 724 | 718 | – | – | – | –
ACGAUGACCGAAAAGUGUCAACUGACAUGAGGAUCACCCAUGUAGGAUAUGGCUACGAAAAGUAGUCAGAAGGACAAGUCAUCA [Omei Exc(NG) 3 Av5] (Eterna round: R96, puzzle: Exclusion NG 3) | 12.4 | 14 | 8.52 | – | – | –
GGAGGAGGAGUGAGGAUAUGGUGGUGGAAACACCACCAGAAGGCACAUGAGGAUCACCCAUGUGAUGUAGAGAA [AK-MS2ROC-r4-Bmoexclusion4-16] (Eterna round: R97, puzzle: Brourd's mod of Exclusion 4) | 27.4 | 16 | – | – | – | –
AAUAAGCGAGGAUAUACUAUUCCUCGACCGGCAGAAACCGGACUUGAGGAUCACCCAAGUAGAAGGCGCAAAAC [Oninso] (Eterna round: R97, puzzle: Exclusion 2) | 448 | 32.8 | – | – | – | –
AUGUACCGGUGAGGAUAUUUUUAAUAGAGCUUUAUGAUAUACAUGAGGAUCACCCAUGUUACUUUAAAGAAGGCAUCGGAUUAA [Mat - Exclusion NG 2 - Mod of JL - D90] (Eterna round: R96, puzzle: Exclusion NG 2) | – | – | 12.8 | – | – | –
AAGUCGACGGUGAGGAUAUUAGUUGAACGACAGAUUAAGAAGGUACAUGAGGAUCACCCAUGUGGGUAACGUUG [Brourd's EX4 #77] (Eterna round: R97, puzzle: Brourd's mod of Exclusion 4) | 76.3 | 107 | – | – | – | –
UAACCCGCGCGAGGAUAUCACAUGAGGAUCACCCAUGUGGCACUCCGUCACCGGGCAGUCCCGAGUGAGAAGGUGCAGGCGGGA [Bireisen] (Eterna round: R96, puzzle: Exclusion NG 2) | 62.8 | 26 | 22.1 | – | – | –
CACCGUUAACUAGGAUAUCGUACAUGAGGAUCACCCAUGUAAUAAAUGAGAAUUUCGGAUGUAUGCGAGAAGGAGUAAAUCGGC [Ostricism 46 - Jieux - Exclusion NG 2] (Eterna round: R96, puzzle: Exclusion NG 2) | 40.8 | 37.3 | 27.6 | – | – | –
GCAGCAUAGUUUACUAACUGUUACAUGAGGAUCACCCAUGUUCAGGAUAUGGUCUGGAUUACAGGCCAGAAGGGAGCAAGCUGC [Eli exng3 - 027] (Eterna round: R96, puzzle: Exclusion NG 3) | 13.3 | 13.8 | 10.7 | – | – | –
AAAUAACAAGCGAGAUCCUACAUGAGGAUCACCCAUGUGCUCGUCUUAUUAAGUACUAUCACGAAAGUGAUAGUACA [Mat - Sensor v3 - turn-off var 1 - Eli Mod - D66] (puzzle: Sensor v3, turn-off variant 1) | – | – | – | 239 | 18.4 | 18.4
